Results reported in paper doi:10.1101/249060 (bioRxiv, 2018).

B1: His6-PafE, wild type, purified alone (natural protein)
chain: MVIGLSTGSDDDDVEVIGGVDPRLIAVQENDSDESSLTDLVEQPAKVMRIGTMIKQLLEEVRAAPLDEASRNRLRDIHATSIRELEDGLAPELREELDRLTLPFNEDAVPSDAELRIAQAQLVGWLEGLFHGIQTALFAQQMAARAQLQQMRQGALPPGVGKSGQHGHGTGQYL
B2: PafE_(P65G) (natural protein)
chain: MVIGLSTGSDDDDVEVIGGVDPRLIAVQENDSDESSLTDLVEQPAKVMRIGTMIKQLLEEVRAAGLDEASRNRLRDIHATSIRELEDGLAPELREELDRLTLPFNEDAVPSDAELRIAQAQLVGWLEGLFHGIQTALFAQQMAARAQLQQMRQGALPPGVGKSGQHGHGTGQYL
B3: PafE_(F138E) (natural protein)
chain: MVIGLSTGSDDDDVEVIGGVDPRLIAVQENDSDESSLTDLVEQPAKVMRIGTMIKQLLEEVRAAPLDEASRNRLRDIHATSIRELEDGLAPELREELDRLTLPFNEDAVPSDAELRIAQAQLVGWLEGLFHGIQTALEAQQMAARAQLQQMRQGALPPGVGKSGQHGHGTGQYL
B4: PafE-PafE linear dimer (PafE_(1-155)-PafE_(1-174)) (other)
chain: MVIGLSTGSDDDDVEVIGGVDPRLIAVQENDSDESSLTDLVEQPAKVMRIGTMIKQLLEEVRAAPLDEASRNRLRDIHATSIRELEDGLAPELREELDRLTLPFNEDAVPSDAELRIAQAQLVGWLEGLFHGIQTALFAQQMAARAQLQQMRQGAGSGNSMVIGLSTGSDDDDVEVIGGVDPRLIAVQENDSDESSLTDLVEQPAKVMRIGTMIKQLLEEVRAAPLDEASRNRLRDIHATSIRELEDGLAPELREELDRLTLPFNEDAVPSDAELRIAQAQLVGWLEGLFHGIQTALFAQQMAARAQLQQMRQGALPPGVGKSGQHGHGTGQYL

Biological target: the molecule itself
Test: SEC
B1: binds. B2: binds. B3: binds. B4: binds.
